US20250277030A1, “ANTI-NAPI2B ANTIBODIES AND METHODS OF USE” (Zymeworks BC Inc., priority 2022, published 2025)

Assays:
[1] = Stability (fragmentation) in mouse plasma at 37° C. by LC-MS; assay type: in vitro ADME; conditions: for apparent % desired proteoforms: Mouse Plasma 37° C., 0.5 mg/ml
Experimental: Samples were removed after 0, 7 and 14 days and stored at −80° C. until characterization. For characterization, samples were thawed at room temperature and 50 μg were incubated with 5 μg of recombinant EndoS endoglycosidase for one hour at room temperature. An immunoprecipitation slurry was generated by a 45 min incubation of 95 μL/sample of magnetic Sepharose streptavidin-coated beads with 15 μg/sample of biotinylated goat anti-Human IgG Fc capture antibody, followed by 4 washes with PBS pH 7.4 with the aid of a DynaMag™-2 magnet (Invitrogen™).
After deglycosylation, plasma-incubated samples were incubated with 95 μL of the immunoprecipitation slurry for 1.5 hrs at room temperature. Then, the slurry underwent 6 washes with PBS pH 7.4 and 2 washes with LC-MS-grade water with the aid of a DynaMag™-2 magnet (Invitrogen™). A final wash with PBS pH 7.4 was performed before elution. Protein was eluted by incubating beads with 35 μL of LC-MS grade water with 20% acetonitrile and 0.1% formic acid for one hour at room temperature. PBS samples were not immunoprecipitated.
5 μL of the eluted sample were transferred to glass inserts in LC-MS vials. For LC-MS analysis, 1 μL of sample were injected into a Waters™ BioSuite Phenyl Column, 1000 Å, 10 μm, 4.6 mm×75 mm using a Waters™ ACQUITY™ UPLC I-Class HPLC system coupled to a Waters™ Synapt™ G2-Si HDMS with a column temperature of 70 C and a flow rate of 0.3 mL/min. Mobile phases consisted of A: LC-MS grade water with 0.1% v/v formic acid, 0.025 v/v trifluoroacetic acid and 10% v/v isopropyl alcohol in, and B: acetonitrile with 0.1% v/v formic acid and 10% v/v isopropyl alcohol. The column was pre-equilibrated in 10% mobile phase B before injection. Then, a 20 min 10 to 27% mobile phase B gradient was applied, followed by a 2 min 27 to 90% mobile phase B gradient and a column wash of 2 min at 99% mobile phase B.
The column was re-equilibrated to 10% mobile phase B for 2 minutes between runs. ESI was performed in positive mode with 3 kV of capillary voltage, 120 C source temperature, 100 V sampling cone voltage, source offset of 80 V, source gas flow of 0 ml/min, desolvation temperature 500 C, cone gas flow 0 μL/Hr, desolvation gas flow […], nebuliser gas flow 6.5 bar. Data format was continuum with analyser set in sensitivity mode, with a m/z range from 500 to 7000.
Peak integration, MS deconvolution and mass assignments were performed in Protein Metrics Byos® v4.0 using a deconvolution window of 60000-160000 Da with an m/z range of 1000-4000. For all time points, the highest intensity deconvoluted mass was assigned as the reference mass of v29456. […]

dsDNA = assay: NS-ELISA non-specific binding, dsDNA; conditions: mAb at 100 nM
Experimental: The isoelectric point was measured by capillary isoelectric focusing (cIEF), the propensity for self-aggregation was measured by Affinity-capture self-interaction nanoparticle spectroscopy (AC-SINS) and non-specific binding was measured by NS-ELISA, as described below.
NS-ELISA was used to measure the propensity of the antibodies to bind to a range of biomolecules to emulate the undesirable non-specific interactions to biological matrices in vivo as described below.
NS-ELISA was carried out in Corning®96-well EIA/RIA Easy Wash™ Clear Flat Bottom Polystyrene High Bind Microplate coated overnight at 4° C. with 50 μL of Heparin (Sigma, H3149) diluted with 50 mM sodium carbonate pH 9.6 to a final concentration of 250 μg/mL. The plate was incubated for 2 days at room temperature, wells that were coated with heparin were not covered to allow air dry. […] Reactions were stopped after approximately 10 minutes by adding 100 μL of 1 M HCl to each well, and absorbance was read at 450 nm. Binding scores were calculated as the ratio of the ELISA signal of the antibody (antibody-treated) to the signal of a well containing buffer instead of the primary antibody (untreated). The cutoffs considered for each binding molecule (ssDNA, KLH, insulin, dsDNA and heparin) were internally calculated, based on the average of Zymeworks Inc. produced antibodies and antibodies benchmarks published in the literature.

B1: v29456: humanized anti-NaPi2b IgG1/kappa antibody H1L2; VH SEQ ID NO:24, VL SEQ ID NO:29 (antibody, V domains shown)
VH: QVQLVQSGAEVKKPGASVKVSCKASGFTFTSYNVHWVRQAPGQGLEWMGAISPGNGDLSYAQKFQGRVTMTRDTSTSTVYMELSSLRSEDTAVYYCARGRTGMGAVDYWGQGTLVTVSS
VL: DVQMTQSPSSLSASVGDRVTITCRASQDVYSYLNWYQQKPGKAVKLLIYYTSRLQSGVPSRFSGSGSGTDYTLTISSLQPEDFATYYCQQYNIFPWTFGQGTKLEIK
modifications: v29452, v29456, v29460 VH (H1); v29453, v29454, v29455, v29456 VL (L2)
With B1 the “fragmentation in mouse plasma, in words” value ([1]; 37° C., 7 and 14 days) was “no evidence of fragmentation”, the “apparent % desired proteoforms” value ([1]; 0 days) was 99.9% and the “apparent % desired proteoforms” value ([1]; 7 days) was 100.0%. For the same molecule, the “apparent % desired proteoforms” value ([1]; 14 days) was 98.4% and the “NS-ELISA binding score (ratio of signal between antibody-treated and untreated), dsDNA” value (dsDNA) was 1.07.
